Patent US20140105931A1
“And” between values parts separate entries of the source, which are not always exact repeats. Equal values may be shown once.

Key:
[1] = target: GST-human CD81-LEL (human) (UniProt P60033); assay: ELISA, plate coated with GST-CD81-LEL, 30-fold concentrated HCVpp, detection with 2C1 mAb, GST background subtracted, relative to wt (Cp7) HCVpp
[2] = target: GST-human CD81-LEL (human) (UniProt P60033); assay: ELISA, plate coated with GST-hCD81-LEL, eE2 detected with anti-human-Fc
[3] = target: human CD81 (co-receptor on Huh-7.5 cells) (human) (UniProt P60033); assay: cell-based or functional assay

Substance	blocking of HCVcc (Cp7) infectivity of Huh-7.5 cells [3]	also measured
HCVpp carrying E2 C6A (from UniProt P26660 384-750; P26660 192-383)		percentage of CD81 binding relative to the wild type [1]: 14.2%
eE2-C6A (Fc-tagged, cell supernatant) (from UniProt P26660 384-664) (Fc fusion)		binding capacity relative to wild type eE2 [2]: < 20%
purified eE2 (Fc tag removed) (from UniProt P26660 384-664)	60% and 70%	
purified eE2-C6A (Fc tag removed) (from UniProt P26660 384-664)	25%	
purified eE2-C17S (from UniProt P26660 384-664)	60% and 70%	
